Target: T1, Rv0287 (Mycobacterium tuberculosis, UniProt O53692 1-97)
T1 sequence: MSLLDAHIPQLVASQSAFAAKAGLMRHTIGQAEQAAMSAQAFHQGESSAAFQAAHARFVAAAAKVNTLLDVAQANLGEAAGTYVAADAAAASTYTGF
Assay: pull-down
Conditions: both partners purified

B1: TB10.4 (natural protein)
chain: MSQIMYNYPAMLGHAGDMAGYAGTLQSLGAEIAVEQAALQSAWQGDTGITYQAWQAQWNQAMEDLVRAYHAMSSTHEANTMAMMARDTAEAAKWGG
notes: also called Rv0288
- binding result: binds
